This test deals with FLAG-tagged murine lipin 1b (murine) (UniProt Q91ZP3). Description: atomic force microscopy.

The term stoichiometry N denotes the number of molecules, sites or subunits per partner or assembly.

As for “FLAG-tagged murine lipin 1b (from UniProt Q91ZP3 1-924) (enzyme)”, the stoichiometry N amounted to 12.

The values are drawn from paper PMC4041088.
